In patent US20220160843A1 (priority 2019, published 2022):

Assays:
P. aeruginosa [1] = assay: Minimal inhibitory concentration (MIC), modified CLSI broth microdilution in CAA or CAA/HuS; assay type: cell-based, Pseudomonas aeruginosa; settings: for MIC (μg/mL) in CAA: CAA media; for MIC (μg/mL in CAA/HuS) / MIC value in CAA/HuS: CAA supplemented with 25% human serum
[2] = tested on: P. aeruginosa strain ATCC 17647; assay: Minimal Biofilm Eradicating Concentration (MBEC), Calgary Biofilm Device; assay type: cell-based, Pseudomonas aeruginosa; settings: 24 h biofilm, 24 h treatment; minimum concentration removing >95% of biofilm biomass (crystal violet)
From the text: All samples were examined in triplicate.

P. aeruginosa [3] = assay: Time-kill assay of GN lysin activity; assay type: cell-based, Pseudomonas aeruginosa; settings: lysin 10 μg/mL, T = 0 7.8; for Log10 CFU/mL T = 3 hr: buffer control 7.2, limit of detection 3.7; for Log10 CFU/mL T = l hr: buffer control 7.7
Description: All treatments were incubated at 37° C. with aeration.

[4] = tested on: carbapenem-resistant clinical strain, WC-452; assay: Checkerboard assay to examine synergy with antibiotics in CAA/HuS; assay type: cell-based, P. aeruginosa; settings: for FICI, Amikacin: lysin + amikacin; for FICI, Azithromycin: lysin + azithromycin; for FICI, Aztreonam: lysin + aztreonam; for FICI, Ciprofloxacin: lysin + ciprofloxacin; for FICI, Colistin: lysin + colistin; for FICI, Fosfomycin: lysin + fosfomycin; for FICI, Gentamicin: lysin + gentamicin; for FICI, Imipenem: lysin + imipenem; for FICI, Meropenem: lysin + meropenem; for FICI, Piperacillin: lysin + piperacillin; for FICI, Rifampicin: lysin + rifampicin; for FICI, Tobramycin: lysin + tobramycin
Description: Fractional inhibitor concentration index (FICI) values were determined for all combinations; values of <0.5 indicate synergy.
(§1) The checkerboard assays is based on a modification of the CLSI method for MIC determination by broth microdilution (26, 29). Checkerboards were constructed by first preparing columns of a 96-well polypropylene microtiter plate, in which each well had the same amount of antibiotic diluted 2-fold along the horizontal axis. […] Summation fractional inhibitory concentrations (ΣFICs) were calculated for each drug and the minimum ΣFIC value (ΣFICmin) was used to determine synergy. ΣFICs were calculated as follows: ΣFIC=FIC A+FIC B, where FIC A is the MIC of each antibiotic in the combination/MIC of each antibiotic alone, and FIC B is the MIC of each GN lysin in the combination/MIC of each GN lysin alone. The combination is considered synergistic when the ΣFIC is ≤0.5, strongly additive when the ΣFIC is >0.5 to <1, additive with the ΣFIC is 1−<2, and antagonistic when the ΣFIC is ≥2.

[5] = tested on: carbapenem-resistant P. aeruginosa strains; assay: Resensitization of carbapenem-resistant clinical strains using carbapenems in combination with lysins; assay type: cell-based
Description: as §1
Up to seven carbapenem-resistant isolates were assessed. […] See Clinical and Laboratory Standards Institute (CLSI), CLSI. […] M100 Performance Standards for Antimicrobial Susceptibility Testing; 29th Edition. Clinical and Laboratory Standards Institute, Wayne, Pa.

[6] = CAA/HuS, ‡ indicates bactericidal activity
[7] = HEPES buffer, ‡ indicates bactericidal activity

B1: GN147: Modified GN3, amino acid substitutions (R101D, R117H), SEQ ID NO: 5 (protein)
chain: MRTSQRGLSLIKSFEGLRLQAYQDSVGVWTIGYGTTRGVKAGMKISKDQAERMLLNDVQRFEPEVERLIKVPLNQDQWDALMSFTYNLGAANLESSTLRDLLNAGNYAAAAEQFPHWNKAGGQVLAGLTRRRAAERELFLGAA
MIC (μg/mL) in CAA (P. aeruginosa [1]): 2 µg/mL | MIC (μg/mL in CAA/HuS) (P. aeruginosa [1]): 4 µg/mL | MIC value in CAA/HuS (P. aeruginosa [1]): 4 µg/mL | MBEC [2]: 0.25 µg/mL | Log10 CFU/mL T = 3 hr (P. aeruginosa [3]; [6]): 4.2‡ Log10 CFU/mL | Log10 CFU/mL T = l hr (P. aeruginosa [3]; CAA/HuS): 6.5 Log10 CFU/mL | Log10 CFU/mL T = 3 hr (P. aeruginosa [3]; [7]): <3.7‡ Log10 CFU/mL | Log10 CFU/mL T = l hr (P. aeruginosa [3]; [7]): <3.7‡ Log10 CFU/mL | synergy with antibiotics in the checkerboard assay [4]: synergize with a range of antibiotics | FICI, Amikacin [4]: 0.375 | FICI, Azithromycin [4]: 0.250 | FICI, Aztreonam [4]: 0.188 | FICI, Ciprofloxacin [4]: 0.281 | FICI, Colistin [4]: 0.188 | FICI, Fosfomycin [4]: 0.250 | FICI, Gentamicin [4]: 0.375 | FICI, Imipenem [4]: 0.375 | FICI, Meropenem [4]: 0.375 | FICI, Piperacillin [4]: 0.188 | FICI, Rifampicin [4]: 0.281 | FICI, Tobramycin [4]: 0.5

B2: GN37: Native lysin, WP_014102102.1/VanY, SEQ ID NO: 12; first disclosed in WO/2017/049233 (protein, listed as Micavibrio aeruginosavorus)
chain: MTYTLSKRSLDNLKGVHPDLVAVVHRAIQLTPVDFAVIEGLRSVSRQKELVAAGASKTMNSRHLTGHAVDLAAYVNGIRWDWPLYDAIAVAVKAAAKELGVAIVWGGDWTTFKDGPHFELDRSKYR
MIC (μg/mL) in CAA (P. aeruginosa [1]): >128 µg/mL | MIC (μg/mL in CAA/HuS) (P. aeruginosa [1]): 32 µg/mL | MIC value in CAA/HuS (P. aeruginosa [1]): 32 µg/mL | MBEC [2]: 0.25 µg/mL | Log10 CFU/mL T = 3 hr (P. aeruginosa [3]; [6]): <3.7‡ Log10 CFU/mL | Log10 CFU/mL T = l hr (P. aeruginosa [3]; CAA/HuS): 6.2 Log10 CFU/mL | Log10 CFU/mL T = 3 hr (P. aeruginosa [3]; [7]): <3.7‡ Log10 CFU/mL | Log10 CFU/mL T = l hr (P. aeruginosa [3]; [7]): 6.3 Log10 CFU/mL | synergy with antibiotics in the checkerboard assay [4]: synergize with a range of antibiotics | FICI, Amikacin [4]: 0.125 | FICI, Azithromycin [4]: 0.188 | FICI, Aztreonam [4]: 0.531 | FICI, Ciprofloxacin [4]: 0.281 | FICI, Colistin [4]: 0.156 | FICI, Fosfomycin [4]: 0.313 | FICI, Gentamicin [4]: 0.313 | FICI, Imipenem [4]: 0.313 | FICI, Meropenem [4]: 0.500 | FICI, Piperacillin [4]: 0.375 | FICI, Rifampicin [4]: 0.281 | FICI, Tobramycin [4]: 0.156

B3: GN121: Modified GN37, C-terminal peptide RKKTRKRLKKIGKVLKWI, SEQ ID NO: 13 (protein)
chain: MTYTLSKRSLDNLKGVHPDLVAVVHRAIQLTPVDFAVIEGLRSVSRQKELVAAGASKTMNSRHLTGHAVDLAAYVNGIRWDWPLYDAIAVAVKAAAKELGVAIVWGGDWTTFKDGPHFELDRSKYRRKKTRKRLKKIGKVLKWI
MIC (μg/mL) in CAA (P. aeruginosa [1]): 0.5 µg/mL | MIC (μg/mL in CAA/HuS) (P. aeruginosa [1]): 0.5 µg/mL | MIC value in CAA/HuS (P. aeruginosa [1]): 0.5 µg/mL | MBEC [2]: 0.25 µg/mL | Log10 CFU/mL T = 3 hr (P. aeruginosa [3]; [6]): <3.7‡ Log10 CFU/mL | Log10 CFU/mL T = l hr (P. aeruginosa [3]; CAA/HuS): 7.4 Log10 CFU/mL | Log10 CFU/mL T = 3 hr (P. aeruginosa [3]; [7]): <3.7‡ Log10 CFU/mL | Log10 CFU/mL T = l hr (P. aeruginosa [3]; [7]): <3.7‡ Log10 CFU/mL | synergy with antibiotics in the checkerboard assay [4]: synergize with a range of antibiotics | FICI, Amikacin [4]: 0.375 | FICI, Azithromycin [4]: 0.188 | FICI, Aztreonam [4]: 0.625 | FICI, Ciprofloxacin [4]: 0.313 | FICI, Colistin [4]: 0.375 | FICI, Fosfomycin [4]: 0.375 | FICI, Gentamicin [4]: 0.375 | FICI, Imipenem [4]: 0.375 | FICI, Meropenem [4]: 0.313 | FICI, Piperacillin [4]: 0.375 | FICI, Rifampicin [4]: 0.313 | FICI, Tobramycin [4]: 0.188 | GN121 Alone ([5]; isolate PA19, MIC of GN121 alone (imipenem checkerboard)): 1 µg/mL | GN121 Alone ([5]; isolate PA19, MIC of GN121 alone (meropenem checkerboard)): 2 µg/mL | GN121 Combination ([5]; isolate PA19, MIC of GN121 in combination with imipenem): 0.125 µg/mL | GN121 Combination ([5]; isolate PA19, MIC of GN121 in combination with meropenem): 0.5 µg/mL | FICI ([5]; isolate PA19, imipenem + GN121): 0.155 | FICI ([5]; isolate PA19, meropenem + GN121): 0.281 | GN121 Alone ([5]; isolate PA20, MIC of GN121 alone (imipenem checkerboard)): 1 µg/mL | GN121 Alone ([5]; isolate PA20, MIC of GN121 alone (meropenem checkerboard)): 2 µg/mL | GN121 Combination ([5]; isolate PA20, MIC of GN121 in combination with imipenem): 0.25 µg/mL | GN121 Combination ([5]; isolate PA20, MIC of GN121 in combination with meropenem): 0.5 µg/mL | FICI ([5]; isolate PA20, imipenem + GN121): 0.265 | FICI ([5]; isolate PA20, meropenem + GN121): 0.313 | GN121 Alone ([5]; isolate PA21, MIC of GN121 alone (imipenem checkerboard)): 1 µg/mL | GN121 Alone ([5]; isolate PA21, MIC of GN121 alone (meropenem checkerboard)): 1 µg/mL | GN121 Combination ([5]; isolate PA21, MIC of GN121 in combination with imipenem): 0.125 µg/mL | GN121 Combination ([5]; isolate PA21, MIC of GN121 in combination with meropenem): 0.125 µg/mL | FICI ([5]; isolate PA21, imipenem + GN121): 0.155 | FICI ([5]; isolate PA21, meropenem + GN121): 0.188 | GN121 Alone ([5]; isolate PA22, MIC of GN121 alone (imipenem checkerboard)): 2 µg/mL | GN121 Alone ([5]; isolate PA22, MIC of GN121 alone (meropenem checkerboard)): 1 µg/mL | GN121 Combination ([5]; isolate PA22, MIC of GN121 in combination with imipenem): 0.25 µg/mL | GN121 Combination ([5]; isolate PA22, MIC of GN121 in combination with meropenem): 0.25 µg/mL | FICI ([5]; isolate PA22, imipenem + GN121): 0.188 | FICI ([5]; isolate PA22, meropenem + GN121): 0.313 | GN121 Alone ([5]; isolate PA23, MIC of GN121 alone (imipenem checkerboard)): 1 µg/mL | GN121 Alone ([5]; isolate PA23, MIC of GN121 alone (meropenem checkerboard)): 2 µg/mL | GN121 Combination ([5]; isolate PA23, MIC of GN121 in combination with imipenem): 0.25 µg/mL | GN121 Combination ([5]; isolate PA23, MIC of GN121 in combination with meropenem): 0.5 µg/mL | FICI ([5]; isolate PA23, imipenem + GN121): 0.257 | FICI ([5]; isolate PA23, meropenem + GN121): 0.375 | GN121 Alone ([5]; isolate PA24, MIC of GN121 alone (imipenem checkerboard)): 1 µg/mL | GN121 Alone ([5]; isolate PA24, MIC of GN121 alone (meropenem checkerboard)): 1 µg/mL | GN121 Combination ([5]; isolate PA24, MIC of GN121 in combination with imipenem): 0.125 µg/mL | GN121 Combination ([5]; isolate PA24, MIC of GN121 in combination with meropenem): 0.125 µg/mL | FICI ([5]; isolate PA24, imipenem + GN121): 0.155 | FICI ([5]; isolate PA24, meropenem + GN121): 0.156 | GN121 Alone ([5]; isolate WC-452, MIC of GN121 alone (meropenem checkerboard)): 1 µg/mL | GN121 Combination ([5]; isolate WC-452, MIC of GN121 in combination with meropenem): 0.06 µg/mL | FICI ([5]; isolate WC-452, meropenem + GN121): 0.123 | resensitization of carbapenem-resistant isolates to IPM and MEM ([5]; synergistic combinations with imipenem or meropenem, breakpoints ≤2 sensitive, 4 intermediate, ≥8 resistant): reductions of IPM and MEM MICS to below breakpoint values

B4: GN92: Modified GN4, N-terminal peptide KFFKFFKFFK with linker, SEQ ID NO: 7 (protein)
chain: KFFKFFKFFKAGAGAGAGAGAGAGAGASMRTSQRGIDLIKSFEGLRLSAYQDSVGVWTIGYGTTRGVTRYMTITVEQAERMLSNDIQRFEPELDRLAKVPLNQNQWDALMSFVYNLGAANLASSTLLKLLNKGDYQGAADQFPRWVNAGGKRLDGLVKRRAAERALFLEPLS
MIC (μg/mL) in CAA (P. aeruginosa [1]): 32 µg/mL | MIC (μg/mL in CAA/HuS) (P. aeruginosa [1]): 4 µg/mL | MIC value in CAA/HuS (P. aeruginosa [1]): 4 µg/mL | MBEC [2]: 0.5 µg/mL | Log10 CFU/mL T = 3 hr (P. aeruginosa [3]; [6]): <3.7‡ Log10 CFU/mL | Log10 CFU/mL T = l hr (P. aeruginosa [3]; CAA/HuS): 6.2 Log10 CFU/mL | Log10 CFU/mL T = 3 hr (P. aeruginosa [3]; [7]): <3.7‡ Log10 CFU/mL | Log10 CFU/mL T = l hr (P. aeruginosa [3]; [7]): 5.7 Log10 CFU/mL | synergy with antibiotics in the checkerboard assay [4]: synergize with a range of antibiotics | FICI, Amikacin [4]: 0.375 | FICI, Azithromycin [4]: 0.063 | FICI, Aztreonam [4]: 0.188 | FICI, Ciprofloxacin [4]: 0.281 | FICI, Colistin [4]: 0.094 | FICI, Fosfomycin [4]: 0.500 | FICI, Gentamicin [4]: 0.375 | FICI, Imipenem [4]: 0.125 | FICI, Meropenem [4]: 0.375 | FICI, Piperacillin [4]: 0.500 | FICI, Rifampicin [4]: 0.094 | FICI, Tobramycin [4]: 0.500
